Measured values reported in patent US6509447B1, “G protein chimeras and methods of screening compounds” (Glaxo Welcome Inc., priority 1997, dated 2003).

What was measured:
Assay type in all cases: cell-based
serotonin 5HT1A receptor = target: T1, serotonin 5HT1A receptor (Homo sapiens, UniProt P08908); test: Reverse halo assay for FUS1-HIS3 expression, MMY9 cells, 5-HT1A; details: MMY9 cells with pRS314-GPA1 and 5-HT1A receptor, 40 nmol serotonin
T1 construct: expressed in transfected cells; host or cells: Saccharomyces cerevisiae strains MMY9 and MMY11, plasmid pDT-PGK-5-HT1A
T1 sequence (P08908 1-422): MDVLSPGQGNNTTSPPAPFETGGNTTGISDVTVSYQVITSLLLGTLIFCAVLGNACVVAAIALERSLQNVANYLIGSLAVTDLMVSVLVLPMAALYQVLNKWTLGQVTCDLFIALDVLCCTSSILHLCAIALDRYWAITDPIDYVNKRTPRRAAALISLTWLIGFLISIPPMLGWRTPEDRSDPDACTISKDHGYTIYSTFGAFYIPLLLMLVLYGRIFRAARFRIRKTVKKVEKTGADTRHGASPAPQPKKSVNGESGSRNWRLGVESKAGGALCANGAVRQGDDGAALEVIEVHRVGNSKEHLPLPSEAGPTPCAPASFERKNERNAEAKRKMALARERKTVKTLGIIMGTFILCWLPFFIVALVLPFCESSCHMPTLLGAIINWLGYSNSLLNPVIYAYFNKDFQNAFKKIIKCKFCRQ
Protocol: (§1) Assay for FUS1-HIS3 Expression. Reverse halo assays were carried out by growing MMY9 cells to early stationary phase (OD600≈4) in liquid SC-glucose (2%) medium lacking tryptophan and uracil. A uniform layer of cells (5×10^7) was plated to 22.5 cm by 22.5 cm bioassay dishes (Nunc) in 100 ml SC-glucose agar (1%) equilibrated to 50° C. This medium lacked tryptophan, uracil and histidine, and was supplemented with 10 mM 3-aminotriazole, and buffered to pH 7.0 with 0.1M sodium phosphate. Antibiotic discs were placed on the solidified agar, and a volume of agonist solution (1-5 μl) was applied to each disc. Plates were incubated at 30° C. for 3 days.
(§2) The four receptors were: the melatonin ML1B receptor, the serotonin 5HT1A receptor, the somatostatin SST2 receptor and the purinergic nucleotide receptor, P2Y2. […] Activation of the pheromone response pathway was monitored with two integrated reporter genes: […] allowing a growth readout in medium lacking histidine, and FUS1-lacZ allowing a β-galactosidase readout. […] Agonist-dependent activation of FUS1-HIS3 was determined by reverse halo assay in which agonists were applied to the filter discs in the arrangement shown in panel A, in quantities as follows: 3 nmol of somatostatin-14 (S-14); 40 nmol of melatonin (Mel); 3 nmol of α-factor; 100 nmol of UTP; 40 nmol of serotonin (5-HT). […]

Ste2p = target: T2, Ste2p (Saccharomyces cerevisiae, UniProt D6VTK4); test: Reverse halo assay for FUS1-HIS3 expression, MMY9 cells, Ste2p; set-up: stimulates the endogenous yeast receptor Ste2p; endogenous in cells; host or cells: Saccharomyces cerevisiae strain MMY9 (derived from W303-1A, MATa); details: MMY9 cells with pRS314-GPA1, 3 nmol α-factor
T2 sequence (D6VTK4 1-431): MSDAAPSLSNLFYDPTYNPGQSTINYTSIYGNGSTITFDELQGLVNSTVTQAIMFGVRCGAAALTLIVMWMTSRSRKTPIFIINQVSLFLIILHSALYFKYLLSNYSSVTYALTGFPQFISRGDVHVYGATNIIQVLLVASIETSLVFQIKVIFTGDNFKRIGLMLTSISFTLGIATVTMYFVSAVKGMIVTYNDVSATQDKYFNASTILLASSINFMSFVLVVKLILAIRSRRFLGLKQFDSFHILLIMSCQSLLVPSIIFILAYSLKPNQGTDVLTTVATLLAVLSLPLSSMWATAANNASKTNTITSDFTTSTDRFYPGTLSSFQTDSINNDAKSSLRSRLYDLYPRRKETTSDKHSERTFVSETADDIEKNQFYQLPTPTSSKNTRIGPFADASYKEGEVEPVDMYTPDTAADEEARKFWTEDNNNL
Protocol: as §1, §2

[1] = target: T3, somatostatin SST2 receptor (Homo sapiens, UniProt P30874); test: Reverse halo assay for FUS1-HIS3 expression, MMY9 cells, SST2; details: MMY9 cells with pRS314-GPA1 and SST2 receptor, 3 nmol somatostatin-14
T3 construct: expressed in transfected cells; host or cells: Saccharomyces cerevisiae strains MMY9 and MMY11, plasmid pFL61-SST2, PGK1 promoter
T3 sequence (P30874 whole entry): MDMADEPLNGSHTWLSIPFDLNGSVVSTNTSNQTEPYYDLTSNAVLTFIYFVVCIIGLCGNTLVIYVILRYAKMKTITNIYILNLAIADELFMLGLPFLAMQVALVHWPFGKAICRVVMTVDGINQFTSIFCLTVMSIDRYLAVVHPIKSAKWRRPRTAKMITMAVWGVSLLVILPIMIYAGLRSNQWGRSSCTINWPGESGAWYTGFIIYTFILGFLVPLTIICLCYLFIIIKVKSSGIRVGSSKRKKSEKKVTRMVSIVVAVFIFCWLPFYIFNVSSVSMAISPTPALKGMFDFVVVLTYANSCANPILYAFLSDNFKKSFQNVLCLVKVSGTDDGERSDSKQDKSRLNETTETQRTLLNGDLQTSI
Protocol: as §1, §2

B1: Gpa1p: endogenous yeast Gα subunit, product of the GPA1 gene (protein, UniProt P08539 2-472, looked up)
Guanine nucleotide-binding …: GCTVSTQTIGDESDPFLQNKRANDVIEQSLQLEKQRDKNEIKLLLLGAGESGKSTVLKQLKLLHQGGFSHQERLQYAQVIWADAIQSMKILIIQARKLGIQLDCDDPINNKDLFACKRILLKAKALDYINASVAGGSDFLNDYVLKYSERYETRRRVQSTGRAKAAFDEDGNISNVKSDTDRDAETVTQNEDADRNNSSRINLQDICKDLNQEGDDQMFVRKTSREIQGQNRRNLIHEDIAKAIKQLWNNDKGIKQCFARSNEFQLEGSAAYYFDNIEKFASPNYVCTDEDILKGRIKTTGITETEFNIGSSKFKVLDAGGQRSERKKWIHCFEGITAVLFVLAMSEYDQMLFEDERVNRMHESIMLFDTLLNSKWFKDTPFILFLNKIDLFEEKVKSMPIRKYFPDYQGRVGDAEAGLKYFEKIFLSLNKTNKPIYVKRTCATDTQTMKFVLSAVTDLIIQQNLKKIGII
Serotonin 5HT1A receptor
  agonist-dependent activation of FUS1-HIS3 (halo of cell growth): did not activate FUS1-HIS3 in response to the agonist serotonin
Ste2p
  agonist-dependent activation of FUS1-HIS3 (halo of cell growth): increased expression of FUS1-HIS3 to enable a halo of cell growth
[1]
  agonist-dependent activation of FUS1-HIS3 (halo of cell growth): responded to somatostatin
